Results as given in patent US20250066456A1 (NOVAVAX, published 2025).
Where two headings read alike, the source gives them in different places.

Assays:
[1] = target: T1, BV2541 (recombinant CoV S glycoprotein, BA.4) (SARS-CoV-2, UniProt P0DTC2 14-1273); experiment: ELISA on coated rS
[2] = target: T2, BV2373 (recombinant CoV S glycoprotein, Prototype) (SARS-CoV-2, UniProt P0DTC2 14-1273); experiment: hACE2 receptor inhibition ELISA on coated rS; competitor hACE2-His
[3] = target: T1, BV2541 (recombinant CoV S glycoprotein, …); experiment: as above
[4] = target: T3, BV2465 (recombinant CoV S glycoprotein, Delta) (SARS-CoV-2, UniProt P0DTC2 14-1273); experiment: as above
[5] = target: BV2438 (recombinant CoV S glycoprotein, Beta) (SARS-CoV-2, UniProt P0DTC2 14-1273); experiment: ELISA, plate coated with rS, serial dilution of the mAb, anti-mouse HRP, A450
[6] = target: T4, BV2425 (recombinant CoV S glycoprotein, Alpha) (SARS-CoV-2, UniProt P0DTC2 14-1273); experiment: as above
[7] = target: T5, BV2443 (recombinant CoV S glycoprotein, Gamma) (SARS-CoV-2, UniProt P0DTC2 14-1273); experiment: as above
[8] = target: T3, BV2465 (recombinant CoV S glycoprotein, …); experiment: as above
[9] = target: T2, BV2373 (recombinant CoV S glycoprotein, …); experiment: BLI, antibody on anti-mouse Fc biosensor, rS analyte
[10] = target: T4, BV2425 (recombinant CoV S glycoprotein, …); experiment: as above
[11] = target: T5, BV2443 (recombinant CoV S glycoprotein, …); experiment: as above
[12] = target: T3, BV2465 (recombinant CoV S glycoprotein, …); experiment: as above
[13] = target: Delta Plus CoV S glycoprotein (recombinant) (Severe acute respiratory syndrome …, UniProt P0DTC2 14-1273)
[14] = target: BV2523 (recombinant CoV S glycoprotein, BA.2) (SARS-CoV-2, UniProt P0DTC2 14-1273); experiment: hACE2 receptor inhibition ELISA on coated rS; competitor hACE2-His
[15] = target: BV2542 (recombinant CoV S glycoprotein, BA.2.12.1) (SARS-CoV-2, UniProt P0DTC2 14-1273); experiment: as above
[16] = target: BV2540 (recombinant CoV S glycoprotein, BA.5) (SARS-CoV-2, UniProt P0DTC2 14-1273); experiment: as above
[17] = target: BV2509 (recombinant CoV S glycoprotein, BA.1) (SARS-CoV-2, UniProt P0DTC2 14-1273); experiment: as above
[18] = target: BV2561 (recombinant CoV S glycoprotein, BA.2.75) (SARS-CoV-2, UniProt P0DTC2 14-1273); experiment: as above
[19] = target: T1, BV2541 (recombinant CoV S glycoprotein, …); experiment: as above; remark: listed apart in the source
[20] = target: BV2562 (recombinant CoV S glycoprotein, BA.4.6) (SARS-CoV-2, UniProt P0DTC2 14-1273); experiment: as above
[21] = target: BV2589 (recombinant CoV S glycoprotein, BQ.1.1) (SARS-CoV-2, UniProt P0DTC2 14-1273); experiment: as above

B1: 199.9 (antibody, V domains shown)
VH: LVQLQQPGAELVKPGASVKLSCKASGYTFTSYFMYWVRQRPGQGLEWIGEINPSNGGNDFNEKFKSKATLTVDKSSSTAYMQLSSLTSEDSAVYYCTRSGDYGYDGFAYWGQGTLVTVSA
VL: NIVLTQSPASLAVSLGQRATISCRASESVDTYGNSFMHWYQQKPGQPPKLLIYLASNLESGVPARFSGSGSRTDFTLTIDPVEADDAATYYCQQNNEDPLTFGAGTKLELK
EC50 [1]: 0.016 µg/mL | IC50 [2]: > 3 µg/mL | IC50 [3]: 0.038 µg/mL | IC50 [4]: > 3 µg/mL

B2: 239.12 (antibody, V domains shown)
VH: EVKLEESGPVLVKPSQSLSLTCTVTGYSITSDYAWNWIRQFPGNKLEWMGYISNSAGTSYNPSLKSRISITRDTSKNQFFLQLNSVTTEDTATYYCASGGWSSYYAMDYWGQGTSVTVSS
VL: DIQMTQSPASLSASVGETVTITCGASENIYGALNWYQRKQGKSPQLLIYGATNLADGMSSRFSGSGSGRQYSLKISSLHPDDVATYYCQNVLSTPYTFGGGTKLEIKR
EC50 [5]: > 5 µg/mL | EC50 [6]: ~5 µg/mL | EC50 [7]: ~5 µg/mL | EC50 [8]: 0.025 µg/mL | Kd [9]: 3.81 pM | koff [9]: 1.79e-07 s⁻¹ | kon [9]: 52900 M⁻¹ s⁻¹ | Kd [10]: 2.26 pM | koff [10]: 1.62e-07 s⁻¹ | kon [10]: 72800 M⁻¹ s⁻¹ | Kd [11]: 4.31 pM | koff [11]: 1.25e-07 s⁻¹ | kon [11]: 29400 M⁻¹ s⁻¹ | Kd [12]: 3.45 pM | EC50 [13]: 0.0199 µg/mL | IC50 [14]: > 3 µg/mL | IC50 [15]: > 3 µg/mL | IC50 [16]: > 5 µg/mL | IC50 [17]: > 3 µg/mL | IC50 [18]: > 5 µg/mL | IC50 [19]: > 3 µg/mL | IC50 [20]: > 5 µg/mL | IC50 [21]: > 3 µg/mL
